Measured values published in paper PMC2948513 (PLoS ONE, 2010).
Non-standard residues stand in square brackets, D forms with d. No end group written: not given here. *: point of attachment. Biotin = O=C1N[C@H]2[C@H](CS[C@H]2CCCCC(=O)*)N1; pS = N[C@@H](COP(=O)(O)O)C(=O)O

B1: synthetic biotin-labeled peptide representing the N-terminal cytoplasmic domain (aa 2-23) of human NEP, non-phosphorylated (peptide)
peptide: GKSESQMDITDINTPKPKKKQRK(Biotin)
notes: neprilysin (NEP, neutral endopeptidase 24.11, CD10), human, N-terminal cytoplasmic domain, amino acids 2-23; C-terminal lysine that carries the biotin, named in words only; It is surmised that the biotinylated lysine is an extra residue after aa 23; also called NEP-NT; non-phosphorylated NEP-NT; source: synthetic peptide (Peptide Specialty Labs, Heidelberg)
B2: synthetic biotin-labeled peptide representing the N-terminal cytoplasmic domain (aa 2-23) of human NEP with serine 6 phosphorylated (peptide)
peptide: GKSE[pS]QMDITDINTPKPKKKQRK(Biotin)
notes: neprilysin (NEP, neutral endopeptidase 24.11, CD10), human, N-terminal cytoplasmic domain, amino acids 2-23, serine 6 phosphorylated; C-terminal lysine that carries the biotin, named in words only; It is surmised that the biotinylated lysine is an extra residue after aa 23; also called pNEP-NT; phosphorylated NEP-NT; source: synthetic peptide (Peptide Specialty Labs, Heidelberg)

Experiments:
Ezrin N-terminus, 1-310 [1] = target: Ezrin N-terminus, 1-310 (UniProt P15311); experiment: SPR, peptide on streptavidin chip; conditions: reference: non-phosphorylated NEP-NT peptide; sites S6
[2] = target: PTEN C-terminal domain, 367-403 (UniProt P60484); experiment: SPR, peptide on streptavidin chip; conditions: reference: non-phosphorylated NEP-NT peptide; sites S6
[3] = target: PTEN C-terminal domain, 367-403 (UniProt P60484); experiment: biotin-peptide streptavidin-agarose pull-down, PTEN blot; conditions: reference: non-phosphorylated NEP-NT peptide; sites S6
Ezrin N-terminus, 1-310 [4] = target: Ezrin N-terminus, 1-310 (UniProt P15311); experiment: biotin-peptide streptavidin-agarose pull-down, MBP blot; conditions: reference: non-phosphorylated NEP-NT peptide; sites S6
[5] = target: T1, fusion protein of the maltose binding protein (MBP) and the N-terminus of Ezrin (amino acids 1-310) (human, UniProt P15311 1-310); experiment: SPR; Biacore3000; biotin-labeled NEP peptides coupled to streptavidin (SA) chip to ~1000 RU; HBS-P buffer (10 mM HEPES pH 7.4, 150 mM NaCl, 0.005% Surfactant P20), 25°C, 30 µl/min; reference surface without peptide subtracted; MBP Ezrin-NT 0.05-0.8 µM, GST PTEN-CT 1.6-12.8 µM; conditions: both partners purified
T1 construct: Ezrin, human, N-terminus, amino acids 1-310; Cloned into the EcoRI/SalI sites of pMAL-c2; also called MBP-Ezrin-NT; MBP Ezrin-NT; source: E. coli DH5α, precipitated by Amylose-resin

Molecule | KD (Ezrin N-terminus, 1-310 [1]) | KD [2] | binding against the reference [3] | binding against the reference (Ezrin N-terminus, 1-310 [4]) | Kd [5] [nM]
Neprilysin (NEP, CD10) N-terminal cytoplasmic domain, 2-23 (from UniProt P08473) pSer6 peptide (pNEP-NT) | same; reference ∼5.8 | weaker; reference ∼0,71 | weaker | same | 
B1 |  |  |  |  | ~5.8
B2 |  |  |  |  | ~5.9
